According to paper PMC5548808, “Structural and functional insights into the lipopolysaccharide ABC transporter LptB2FG” (Nature Communications, 2017):
Substitutions are numbered along the chain they refer to.

T1: LptF F26D/L62D of E. coli (in purified mutant LptB2CFG) (E. coli, UniProt P0AF98 1-366, F26D | L62D)
T1 construct: LptF, E. coli, double mutant F26D/L62D
T1 sequence (looked up): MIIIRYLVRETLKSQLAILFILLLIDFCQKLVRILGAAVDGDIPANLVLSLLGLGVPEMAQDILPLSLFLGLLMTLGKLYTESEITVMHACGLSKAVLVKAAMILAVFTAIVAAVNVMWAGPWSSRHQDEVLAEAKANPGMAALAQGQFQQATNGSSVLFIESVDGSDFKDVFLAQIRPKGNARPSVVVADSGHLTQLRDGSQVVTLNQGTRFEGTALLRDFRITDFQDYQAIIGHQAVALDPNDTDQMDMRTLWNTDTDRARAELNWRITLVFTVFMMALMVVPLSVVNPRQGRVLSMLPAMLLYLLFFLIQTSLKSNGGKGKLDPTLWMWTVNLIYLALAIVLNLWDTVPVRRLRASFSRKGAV

T2: LptG of E. coli (in purified wild-type LptB2CFG) (E. coli, UniProt P0ADC6 1-360)
T2 construct: LptG, E. coli, transmembrane subunit of the LptB2CFG complex
T2 sequence (looked up): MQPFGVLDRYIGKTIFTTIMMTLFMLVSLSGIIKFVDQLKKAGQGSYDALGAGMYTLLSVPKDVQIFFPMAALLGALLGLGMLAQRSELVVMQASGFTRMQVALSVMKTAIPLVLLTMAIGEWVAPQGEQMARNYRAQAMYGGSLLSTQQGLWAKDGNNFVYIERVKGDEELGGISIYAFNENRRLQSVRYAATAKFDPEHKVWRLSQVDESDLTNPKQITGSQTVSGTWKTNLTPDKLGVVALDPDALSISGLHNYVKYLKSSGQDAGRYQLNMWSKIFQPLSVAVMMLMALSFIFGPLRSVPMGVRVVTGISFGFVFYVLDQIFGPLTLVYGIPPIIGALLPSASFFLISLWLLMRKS

T3: LptG K34E/R136E of E. coli (in purified mutant LptB2CFG) (E. coli, UniProt P0ADC6 1-360, K34E | R136E)
T3 construct: LptG, E. coli, double mutant K34E/R136E
T3 sequence (looked up): T2 sequence (looked up) with K34E, R136E

T4: LptF of E. coli (in purified wild-type LptB2CFG) (E. coli, UniProt P0AF98 1-366)
T4 construct: LptF, E. coli, transmembrane subunit of the LptB2CFG complex
T4 sequence (looked up): T1 sequence (looked up) with D26F, D62L

B1: LptB of E. coli (in purified LptB2CFG) (natural protein, UniProt P0A9V1 1-241, looked up)
chain: MATLTAKNLAKAYKGRRVVEDVSLTVNSGEIVGLLGPNGAGKTTTFYMVVGIVPRDAGNIIIDDDDISLLPLHARARRGIGYLPQEASIFRRLSVYDNLMAVLQIRDDLSAEQREDRANELMEEFHIEHLRDSMGQSLSGGERRRVEIARALAANPKFILLDEPFAGVDPISVIDIKRIIEHLRDSGLGVLITDHNVRETLAVCERAYIVSQGHLIAHGTPTEILQDEHVKRVYLGEDFRL
notes: in the K. pneumoniae construct and in the E. coli pTRC99a-Kan LptBFG plasmid it is an 8xHis at the C terminus of LptB
B2: LptC of E. coli (in purified LptB2CFG) (natural protein, UniProt P0ADV9 1-191, looked up)
chain: MSKARRWVIIVLSLAVLVMIGINMAEKDDTAQVVVNNNDPTYKSEHTDTLVYNPEGALSYRLIAQHVEYYSDQAVSWFTQPVLTTFDKDKIPTWSVKADKAKLTNDRMLYLYGHVEVNALVPDSQLRRITTDNAQINLVTQDVTSEDLVTLYGTTFNSSGLKMRGNLRSKNAELIEKVRTSYEIQNKQTQP
notes: LptC, E. coli, inner membrane protein of the LptB2CFG complex; The construct of LptC is not described

Experiments:
Test in all cases: SEC; co-expressed E. coli LptB2CFG complexes (wild type and mutants) purified as the K. pneumoniae complex; HiLoad 16/600 Superdex 200 pg, 20 mM Tris-Cl pH 7.8, 150 mM NaCl, 5% glycerol, 0.05% DDM
Conditions in all cases: both partners purified
[1] = biological target: T1, LptF F26D/L62D of E. coli (in purified …)
[2] = biological target: T2, LptG of E. coli (in purified wild-type …)
[3] = biological target: T3, LptG K34E/R136E of E. coli (in purified …)
[4] = biological target: T4, LptF of E. coli (in purified wild-type …)
[5] = biological target: B1

Q: What does the source list for B1?
A: binding result [1]: binds; binding result [2]: binds; binding result [3]: binds; binding result [4]: binds

Q: Does B2 bind [5]?
A: binds
